The text below walks through data of patent US10543284B2, “Anti-c-Met antibody and anti-c-Met antibody-cytotoxic drug conjugate and pharmaceutical use thereof” (Suzhou Suncadia Biopharmaceuticals Co., Ltd., priority 2015, dated 2020).

Series [1] has as its target T1, cell line MKN45, which overexpresses c-Met (Homo sapiens, UniProt P08581).
T1 construct: host or cells: MKN45
Nature of the series: FACS binding activity with MKN45 cells. To be noted: Table 6. Here is the method: A FACS method was used to detect the binding activity of c-Met humanized antibodies with the cell line MKN45, which overexpresses c-Met. […] The plate was incubated for 1 hour at 4° C. FACS buffer (PBS comprising 2.5% (v/v) FBS (Hyclone, Cat: SH30256.01B)) was added. The plate was centrifuged under 4° C. at 1300 rmp for 4 minutes, and the supernatant was discarded. This procedure was repeated three times. 100 μl of secondary antibodies (Fluorescence labeled goat-anti-mouse secondary antibodies with 1:200 dilution, Biolegend, Cat No. 405307; Fluorescence labeled anti-human secondary antibody with 1:30 dilution, Biolegend, Cat No. 409304) were added to each well, and the plate was incubated for 1 hour at 4° C. FACS buffer was added, the plate was centrifuged under 4° C. at 1300 rpm for 4 minutes, the supernatants were discarded; and this procedure was repeated three times. 200 μl FACS buffer was added to resuspend the cells, and the samples were prepared and detected by flow cytometry (BD FACS Array).

The test system of a further series is Caki-1 cells. Nature of the series: Agonist test: stimulation of Caki-1 cell proliferation. In kind it is cell-based, human. To be noted: highest concentration 20 μg/ml, 5 days. How it is done:
Caki-1 cells express the hepatocyte growth factor receptor c-Met, and HGF can bind c-Met to stimulate Caki-1 cell proliferation. Therefore, agonist activity of anti c-Met antibodies could be evaluated by the proliferation of Caki-1 cells stimulated by the humanized anti c-Met antibodies of the invention compared with the proliferation of Caki-1 cells stimulated by HGF.
Caki-1 cells (Shanghai Branch of Chinese Academy of Science, TCHu135, P12) were added to a 96-well culture plate (costar, #3799) at 1000/well. The medium was McCoy's 5A (invitrogen, #16600)+10% FBS (GIBCO-10099141), and the condition was at 37° C. for 24 hours. Afterwards, cells were starved for 24 hours (The medium for cell starvation is McCoy's 5A and 0.5% FBS).

Series [2] relates to MKN45 cells expressing c-Met. Nature of the series: Endocytosis of anti c-Met antibody in MKN45 cells (FACS). In kind it is cell-based, human. To be noted: 10 μg/ml. Here is the method: Antibodies of the invention could bind to human c-Met, have very good in vitro activity, and inhibit tumor activity in vivo. […] In order to detect whether the antibody could be taken up into the cell along with human c-Met once bound to human c-Met, the human gastric cancer cell line MKN45 (JCRB, Cat No.: JCRB0254) expressing c-Met was used for evaluation. […] The plate was incubated at 4° C. for 1 hour. FACS buffer (phosphate buffer solution including 2.5% fetal bovine serum; Hyclone, Cat: SH30256.01B) was added, and the plate was centrifuged at 4° C., 1300 rpm for 4 minutes. The supernatant was discarded, and this procedure was repeated three times. 100 μl secondary antibody solution (Fluorescence labeled goat anti mouse secondary antibodies at 1:200 dilution, Biolegend, Cat No. 405307; Fluorescence labeled anti-human secondary antibody at 1:30 dilution, Biolegend, Cat No. 409304) was added into each well, and the plate was incubated at 4° C. for 1 hour. FACS buffer was added and the plate was centrifuged at 4° C., 1300 rpm for 4 minutes. The supernatant was discarded, and this procedure was repeated three times. […] FACS buffer was added and the plate was centrifuged at 4° C., 1300 rpm for 4 minutes. The supernatant was discarded, and this procedure was repeated three times. 200 μl Stripping buffer (0.05 M glycine, pH 3.0; 0.1 M NaCl, mixed in accordance with 1:1 (v/v)) was added to each well. The cells were resuspended and were incubated for 7 minutes at room temperature. The cells were centrifuged at room temperature at 1300 rpm for 4 minutes, and the supernatant was discarded. 200 μl neutralizing wash buffer (0.15M trihydroxymethyl aminomethane, pH 7.4) was added to each well, the cells were resuspended and centrifuged at room temperature at 1300 rpm for 4 minutes, and the supernatant was discarded. 200 μl FACS buffer was added, and the cells were resuspended. Samples were prepared and detected by flow cytometry (BD FACS Calibur). Endocytosis of c-Met antibody %=(intensity of fluorescence at various time points−average intensity of fluorescence at time 0)/average intensity of fluorescence at time 0.

A short description of series [3]: LC-MS analysis of deamination (biophysical stability). Type of series: physicochemical. To be noted: Proportion of deamination molecules; 0.66-1.0% is within background. Here is the method: To evaluate the biophysical stability of the antibodies of the invention, such as the presence of glycosylation and deamination and stability, LC-MS analysis was used.
The molecular weight of the heavy and light chains was detected by LC-MS to analyze glycosylation. Deamination was analyzed by LC-MS at 4° C. for a long time (at least 3 months), or at 40° C. for 21 days under an accelerated condition. Samples treated with different conditions were diluted to 2 mg/ml with pH7.2 Tris-HCl, and added into 10 mM TCEP and 6M urea (AMRESCO, Cat #0378)3, then the samples were incubated for 20 minutes at […]. IAA(Sigma-Aldrich, Cat # I1149) with a final concentration of 20 mM was added and was incubated for 15 minutes in darkness to protect the sulfhydryl group. The pH was adjusted using pH7.2 Tris-HCl, and protease (Sigma-Aldrich, Cat # T6567) was added at a proportion by weight of 10:1 (protein: enzyme). The samples were incubated at 37° C. for 25 minutes, and then formic acid with a final concentration of 0.1% (Fluca, Cat #94318) was added to terminate the reactions. Samples were centrifuged and analyzed by LC-MS.
BiopharmaLynx was used to analyze the presence of deamination. […] The peak area was obtained by integration, and the percentages of deamination and oxidation were calculated.

T1 sequence (P08581 25-1390): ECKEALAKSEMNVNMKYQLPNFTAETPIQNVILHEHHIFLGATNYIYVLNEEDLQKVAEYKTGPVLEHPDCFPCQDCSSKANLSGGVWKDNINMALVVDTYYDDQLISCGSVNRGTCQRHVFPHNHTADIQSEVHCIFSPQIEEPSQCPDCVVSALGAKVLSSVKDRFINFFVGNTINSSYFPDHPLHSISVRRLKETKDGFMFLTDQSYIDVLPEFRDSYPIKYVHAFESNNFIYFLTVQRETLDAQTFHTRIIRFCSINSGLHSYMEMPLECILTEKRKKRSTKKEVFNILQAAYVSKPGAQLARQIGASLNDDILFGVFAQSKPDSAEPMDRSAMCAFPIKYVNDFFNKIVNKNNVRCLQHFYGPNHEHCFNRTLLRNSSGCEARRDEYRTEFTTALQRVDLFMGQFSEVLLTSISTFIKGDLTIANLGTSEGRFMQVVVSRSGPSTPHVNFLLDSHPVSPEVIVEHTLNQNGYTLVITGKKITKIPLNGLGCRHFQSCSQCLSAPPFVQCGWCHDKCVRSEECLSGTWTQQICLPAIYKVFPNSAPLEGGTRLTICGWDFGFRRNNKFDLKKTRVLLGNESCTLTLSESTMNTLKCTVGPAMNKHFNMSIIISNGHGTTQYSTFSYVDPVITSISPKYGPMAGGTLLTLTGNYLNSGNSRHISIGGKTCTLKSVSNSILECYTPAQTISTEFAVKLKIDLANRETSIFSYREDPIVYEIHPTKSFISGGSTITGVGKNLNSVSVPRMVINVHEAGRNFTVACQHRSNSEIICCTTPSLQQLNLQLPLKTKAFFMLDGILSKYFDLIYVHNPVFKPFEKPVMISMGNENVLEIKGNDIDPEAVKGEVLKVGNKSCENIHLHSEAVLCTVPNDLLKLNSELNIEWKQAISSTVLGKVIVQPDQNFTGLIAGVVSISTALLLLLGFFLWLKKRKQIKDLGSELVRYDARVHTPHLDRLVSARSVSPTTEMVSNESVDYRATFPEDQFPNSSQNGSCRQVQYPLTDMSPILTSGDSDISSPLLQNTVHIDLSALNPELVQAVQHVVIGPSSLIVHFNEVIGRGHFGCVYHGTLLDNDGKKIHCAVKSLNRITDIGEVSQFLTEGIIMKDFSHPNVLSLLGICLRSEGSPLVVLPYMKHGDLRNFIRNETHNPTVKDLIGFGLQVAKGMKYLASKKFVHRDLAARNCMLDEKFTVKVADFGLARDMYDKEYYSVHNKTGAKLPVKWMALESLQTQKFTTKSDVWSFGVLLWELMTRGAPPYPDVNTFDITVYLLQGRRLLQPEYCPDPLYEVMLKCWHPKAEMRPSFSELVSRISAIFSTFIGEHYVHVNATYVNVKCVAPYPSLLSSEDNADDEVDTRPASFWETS

B1: Ab-9: humanized anti c-Met antibody: heavy chain sequence of SEQ ID NO: 23 and light chain sequence of SEQ ID NO: 26 (antibody)
heavy: QVTLKESGPVLVKPTETLTLTCTVSGFSLPNYGVHWVRQPPGKALEWLAVIWSGGSTNYAAAFVSRLRISKDTSKSQVVFTMNNMDPVDTATYYCARNHDNPYNYAMDYWGQGTTVTVSSASTKGPSVFPLAPCSRSTSESTAALGCLVKDYFPEPVTVSWNSGALTSGVHTFPAVLQSSGLYSLSSVVTVPSSNFGTQTYTCNVDHKPSNTKVDKTVERKCCVECPPCPAPPVAGPSVFLFPPKPKDTLMISRTPEVTCVVVDVSHEDPEVQFNWYVDGVEVHNAKTKPREEQFNSTFRVVSVLTVVHQDWLNGKEYKCKVSNKGLPAPIEKTISKTKGQPREPQVYTLPPSREEMTKNQVSLTCLVKGFYPSDIAVEWESNGQPENNYKTTPPMLDSDGSFFLYSKLTVDKSRWQQGNVFSCSVMHEALHNHYTQKSLSLSPGK
light: DIVLTQSPASLAVSPGQRATITCRANKSVSTSTYNYLHWYQQKPGQPPKLLIYLASNLASGVPARFSGSGSGTDFTLTINPVEANDTANYYCQHSRDLPPTFGQGTKLEIKRTVAAPSVFIFPPSDEQLKSGTASVVCLLNNFYPREAKVQWKVDNALQSGNSQESVTEQDSKDSTYSLSSTLTLSKADYEKHKVYACEVTHQGLSSPVTKSFNRGEC
modifications: Ab-9 heavy chain; Ab-9 light chain
Consider B1, for which a half-maximal response in series [1] (EC50) required 1.6 nM. Besides, the “Stimulation of proliferation of Caki-1” value in the series on Caki-1 cells was “none”. For the same molecule, the “endocytosis % 0 h” value in series [2] (0 h) is listed as 0%. The “endocytosis % 0.5 h” value in series [2] (0.5 h) is reported as 26%. Besides, in series [2] (1 h), the “endocytosis % 1 h” value stood at 32%. In series [2] (2 h), the “endocytosis % 2 h” value is on record as 32%. Besides, the “endocytosis % 4 h” value in series [2] (4 h) came to 31%. In addition, in series [3], the “Analysis of deamination 4° C., 3.5 months” value amounted to 0.66%.
